According to article PMC9957770, “Mass spectrometry imaging–based assays for aminotransferase activity reveal a broad substrate spectrum for a previously uncharacterized enzyme” (The Journal of Biological Chemistry, 2023):

What was measured:
Assay in all cases: purified protein
Type in all cases: biochemical, Arabidopsis thaliana
purified protein [1] = substrate: N[C@@H](Cc1c[nH]c2ccccc12)C(=O)O; settings: 0.2 mM PLP, 100 mM HEPES pH 8.0, 30 °C
purified protein [2] = substrate: N[C@@H](Cc1c[nH]cn1)C(=O)O; settings: 20 mM alpha-ketoglutarate, 0.2 mM PLP, 100 mM HEPES pH 8.0, 30 °C
purified protein [3] = substrate: N[C@@H](Cc1ccc(O)cc1)C(=O)O; settings: 0.2 mM PLP, 100 mM HEPES pH 8.0, 30 °C
purified protein [4] = substrate: N[C@@H](Cc1ccccc1)C(=O)O; settings: 0.2 mM PLP, 100 mM HEPES pH 8.0, 30 °C

Row | Protein | Km (purified protein [1]; 20 mM alpha-ketoglutarate) [mM] | kcat (purified protein [1]; 20 mM alpha-ketoglutarate) [s⁻¹] | Km (purified protein [2]) [mM] | kcat (purified protein [2]) [s⁻¹] | Km (purified protein [3]; 20 mM alpha-ketoglutarate) [mM] | kcat (purified protein [3]; 20 mM alpha-ketoglutarate) [s⁻¹] | Km (purified protein [4]; 20 mM alpha-ketoglutarate) [mM] | kcat (purified protein [4]; 20 mM alpha-ketoglutarate) [s⁻¹] | Km (purified protein [1]; 20 mM pyruvate) [mM] | kcat (purified protein [1]; 20 mM pyruvate) [s⁻¹] | Km (purified protein [3]; 20 mM pyruvate) [mM] | kcat (purified protein [3]; 20 mM pyruvate) [s⁻¹] | Km (purified protein [4]; 20 mM pyruvate) [mM] | kcat (purified protein [4]; 20 mM pyruvate) [s⁻¹]
1 | AtTAR1 (Arabidopsis thaliana) (protein) MMVGCENSKKSDSGSNEDKSLSDDIINLDQGDPTAFQEYWMKKKDRCTVVIPAWDLMSYFSDTKNVCWFLEPELEKAIKALHGAIGNAATEERYIVVGTGSSQLCQAALFALSSLSEVKPVSIVAAVPYYSTYVEEASYLQSTLYKWEGDARTFDKKGPYIELVTSPNNPDGIMREPVVNRREGGKVIHDLAYYWPHYTPITRRQDHDLMLFTFSKITGHAGSRIGWALVKDIEVAKKMVHYLTINSIGVSKESQTRATTILNELTKTCRTQSESFFEYGYEKMKSRWERLREVVESGDAFTLPNYPQDFCNFFGKTLSTSPAFAWLGYKEERDLGSLLKEKKVLTRGGDRCGCNKRYVRVSMLSRDDDFDVSLQRLATIKDLKCVEP | 0.07 ± 0.02 | 4.5 ± 0.2 | 30 ± 6 | 1.8 ± 0.1 | 1 ± 3 | 4.0 ± 0.3 | 2.6 ± 0.3 | 5.0 ± 0.2 | – | – | – | – | – | –
2 | AtTAA1 (Arabidopsis thaliana) (protein) MVKLENSRKPEKISNKNIPMSDFVVNLDHGDPTAYEEYWRKMGDRCTVTIRGCDLMSYFSDMTNLCWFLEPELEDAIKDLHGVVGNAATEDRYIVVGTGSTQLCQAAVHALSSLARSQPVSVVAAAPFYSTYVEETTYVRSGMYKWEGDAWGFDKKGPYIELVTSPNNPDGTIRETVVNRPDDDEAKVIHDFAYYWPHYTPITRRQDHDIMLFTFSKITGHAGSRIGWALVKDKEVAKKMVEYIIVNSIGVSKESQVRTAKILNVLKETCKSESESENFFKYGREMMKNRWEKLREVVKESDAFTLPKYPEAFCNYFGKSLESYPAFAWLGTKEETDLVSELRRHKVMSRAGERCGSDKKHVRVSMLSREDVFNVFLERLANMKLIKSIDL | – | – | 11 ± 2 | 0.6 ± 0.1 | – | – | – | – | 1.2 ± 0.2 | 4.2 ± 0.2 | 8 ± 3 | 13.2 ± 0.3 | 13 ± 3 | 2.0 ± 0.3
